Each block holds one binder with its values, some of them ahead of it. No end group written: not given here.
Tests used:
glucagon receptor = glucagon receptor (human, UniProt P47871); assay: competition, COS-7 cells, up to 1 uM
PTH2 receptor = molecular target: T1, PTH2 receptor (human); assay: competition, [125I]TIP39, 10 uM GTPgS, HEK293 membranes
T1 chain: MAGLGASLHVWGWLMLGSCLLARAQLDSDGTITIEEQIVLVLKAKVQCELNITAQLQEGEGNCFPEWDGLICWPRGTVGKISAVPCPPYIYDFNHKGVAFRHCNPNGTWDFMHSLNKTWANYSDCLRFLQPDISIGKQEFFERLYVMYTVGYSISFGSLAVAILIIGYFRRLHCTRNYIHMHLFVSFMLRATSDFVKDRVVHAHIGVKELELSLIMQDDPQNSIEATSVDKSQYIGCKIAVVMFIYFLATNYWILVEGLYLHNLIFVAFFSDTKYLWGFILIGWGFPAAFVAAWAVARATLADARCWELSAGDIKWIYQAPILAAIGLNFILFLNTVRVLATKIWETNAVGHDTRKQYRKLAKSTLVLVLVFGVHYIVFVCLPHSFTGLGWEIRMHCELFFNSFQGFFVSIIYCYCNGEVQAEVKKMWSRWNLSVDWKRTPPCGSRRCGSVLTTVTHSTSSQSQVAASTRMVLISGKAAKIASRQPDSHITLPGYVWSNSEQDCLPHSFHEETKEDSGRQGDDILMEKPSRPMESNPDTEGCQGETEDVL

PTH1 receptor [1] = molecular target: T2, PTH1 receptor (human, UniProt Q03431); assay: competition, [125I]rPTH(1-34), 10 uM GTPgS, HEK293 membranes
T2 chain: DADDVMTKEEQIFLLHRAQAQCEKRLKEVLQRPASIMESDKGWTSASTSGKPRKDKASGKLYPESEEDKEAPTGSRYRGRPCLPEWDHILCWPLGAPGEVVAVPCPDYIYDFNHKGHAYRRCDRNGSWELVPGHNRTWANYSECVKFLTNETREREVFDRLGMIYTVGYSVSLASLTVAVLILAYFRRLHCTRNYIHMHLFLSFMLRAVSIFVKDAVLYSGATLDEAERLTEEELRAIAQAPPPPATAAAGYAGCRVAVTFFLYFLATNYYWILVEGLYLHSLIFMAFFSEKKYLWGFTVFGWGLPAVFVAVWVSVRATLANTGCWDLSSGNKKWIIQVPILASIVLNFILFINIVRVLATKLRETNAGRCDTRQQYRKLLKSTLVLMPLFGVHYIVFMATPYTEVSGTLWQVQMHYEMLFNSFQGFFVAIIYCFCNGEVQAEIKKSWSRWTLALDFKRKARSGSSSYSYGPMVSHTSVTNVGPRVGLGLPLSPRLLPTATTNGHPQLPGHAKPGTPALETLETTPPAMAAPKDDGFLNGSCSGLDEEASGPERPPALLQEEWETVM

PTH1 receptor [2] = molecular target: T2, PTH1 receptor; assay: other, radioligand kinetics, HEK293 membranes, 21C
PTH1 receptor [3] = molecular target: T2, PTH1 receptor; assay: other, radioligand saturation, HEK293 membranes, 21C

Sequence of glucagon receptor (P47871 26-477): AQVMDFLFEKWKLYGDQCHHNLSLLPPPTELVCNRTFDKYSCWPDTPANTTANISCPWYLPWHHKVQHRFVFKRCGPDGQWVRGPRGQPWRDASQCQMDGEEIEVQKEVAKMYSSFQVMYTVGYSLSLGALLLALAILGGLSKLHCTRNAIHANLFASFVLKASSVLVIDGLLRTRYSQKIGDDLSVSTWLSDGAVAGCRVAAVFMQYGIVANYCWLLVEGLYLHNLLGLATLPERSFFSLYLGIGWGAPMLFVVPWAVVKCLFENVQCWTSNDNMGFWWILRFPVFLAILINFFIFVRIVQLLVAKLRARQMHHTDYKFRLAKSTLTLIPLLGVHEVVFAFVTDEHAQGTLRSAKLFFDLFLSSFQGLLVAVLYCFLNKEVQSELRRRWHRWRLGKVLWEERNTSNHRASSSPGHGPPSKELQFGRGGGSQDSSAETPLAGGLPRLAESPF

binding result (glucagon receptor): no binding
Binder: SLALADDAAFRERARLLAALERRHWLNSYMHKLLVLDAP [TIP39]

IC50 (PTH2 receptor): 98 nM | IC50 (PTH1 receptor [1]): 5 nM
Binder: DAAFRERARLLAALERRHWLNSYMHKLLVLDAP [TIP(7-39)]

Kd (PTH1 receptor [2]): 0.57 nM | Kd (PTH1 receptor [3]): 1.3 nM
Binder: DAAFRERARLLAALERRHWLNSYMHKLLVLDAP (also: 125I label, site not given here) [[125I]TIP(7-39)]
